Measured values from patent US8772236B2, “Truncated cystine-knot proteins” (Pepscan Systems B.V., priority 2009, dated 2014).
Changes are numbered by the printed parent chain. “And” between values parts separate entries of the source, which are not always exact repeats. Identical values can stand only once. Blank lines part the entries; values can stand above or below the molecule they belong to.

How the values were obtained:
[1] = system: Avastin™; assay: Competition ELISA: inhibition of Avastin-binding to surface-immobilized humVEGF1-165 by peptides
[2] = biological target: T1, ratVEGF1-165 homodimer (recombinant full-length ratVEGF) (Rattus norvegicus, UniProt P16612); assay: Binding of rat-antisera in ELISA to ratVEGF1-165 homodimer; settings: coat ratVEGF1-165 homodimer; Avastin
T1 construct: humanVEGF), and D) ratVEGF1-165 homodimer (recombinant full-length ratVEGF); For
T1 sequence (P16612 27-165 isoform P16612-2 limits assumed): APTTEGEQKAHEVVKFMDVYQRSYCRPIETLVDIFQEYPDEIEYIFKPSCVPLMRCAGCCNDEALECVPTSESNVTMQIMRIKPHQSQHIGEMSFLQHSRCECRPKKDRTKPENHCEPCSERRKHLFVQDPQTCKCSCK
Method: Therefore, polystyrene 96-well plates (Greiner, Germany) were treated with 100 μL/well of 0.2% glutaric dialdehyde in phosphate-buffer (0.1 M, pH=5) for four hours at room temperature while shaking, following by washing (3×10 minutes) with phosphate-buffer (0.1 M, pH=8). Then, the wells were coated with 100 μL/well of a 1 μg/mL solution of oxid-humVEGF26-104/humVEGF1-165 in phosphate-buffer (0.1 M, pH=8) for three hours at 37° C., followed by overnight standing at room temperature. After washing with 1% TWEEN®-80 (3×), the plates were incubated with the antibody at various different dilutions in horse serum (4% in PBS/1% TWEEN®-80/3% NaCl), starting with 1/10 dilution in the first well and three-fold dilution steps in subsequent wells. Incubation was performed for one hour at 37° C., followed by washing with 1% TWEEN®-80 (3×). Then, the plates were incubated with 100 μL/well of peroxidase-labeled Goat-anti-rat serum (1/1000 dilution in 4% horse serum, see above) for one hour at 25° C., followed by washing with 1% TWEEN®-80 (4×). […] OD405 nm-values were measured after 45 minutes standing at room temperature in the dark.
(§3) Titers were calculated by determining the serum dilution for which OD405 nm is equal to 4×OD405 nm that of a buffer solution (see “ELISA-binding studies, example 1B”). […]

[3] = system: BaF3 cells (murine pre-B lymphocytes stable expressing human humVEGF-Receptor 2); assay: BaF3-cell proliferation in the presence of oxid-humVEGF26-104; assay type: cell-based
Method: FIG. 8. Proliferation data from BaF3/cell assay with humVEGF26-104 at various concentration (0.01-20 ng/mL), either in the absence and presence of humVEGF1-165. Level of proliferation observed at humVEGF1-165=1.2 ng/mL was set by default to 100%, other proliferation levels were expressed as % of default.
The cells that are used in the assay are murine pre-B lymphocytes stable expressing human (h) humVEGF-Receptor 2 (Makinen et al., 2001). These recombinant cells survive/proliferate only in the presence of IL-3 (natural cytokine required for the survival of the parental cells) or humVEGF. […]
Two days later, cell proliferation was measured by adding WST-1 (Roche #1644807). […]
The WST-1 assay is based on the measurement of the mitochondrial succinate dehydrogenase activity. […] A tetrazolium salt (WST-1) is used as substrate since it generates a soluble dark metabolic (formazon) through the action of the enzyme, which can then be quantified by measuring the absorbance (450 nm) in an ELISA reader. The higher the absorbance measured in the assay, the stronger the proliferation. Absorbance is positively correlated with proliferation. […]
In order to check whether oxid-humVEGF26-104, the truncated form of humVEGF1-165, is also able to induce BaF3-cell proliferation, we measured cell proliferation in the presence of varying amounts of oxid-humVEGF26-104 (0.01-20 ng/mL). […]

[4] = biological target: T2, humVEGF1-165 (Homo sapiens, UniProt P15692); assay: ELISA titer determination of antisera on surface-immobilized humVEGF1-165 after immunization with oxid-humVEGF26-104; assay type: binding; settings: female Wistar rats and female Balb/C mice
T2 sequence (P15692 27-191 isoform P15692-4 limits assumed): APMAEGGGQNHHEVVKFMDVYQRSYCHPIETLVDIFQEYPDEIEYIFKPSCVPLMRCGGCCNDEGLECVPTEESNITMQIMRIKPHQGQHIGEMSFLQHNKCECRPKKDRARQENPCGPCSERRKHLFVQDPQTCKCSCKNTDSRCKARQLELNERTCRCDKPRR
Method: Therefore, polystyrene 96-well plates (Greiner, Germany) were treated with 100 μL/well of 0.2% glutaric dialdehyde in phosphate-buffer (0.1 M, pH=5) for four hours at room temperature while shaking, following by washing (3×10 minutes) with phosphate-buffer (0.1 M, pH=8). Then, the wells were coated with 100 μL/well of a 1 μg/mL solution of oxid-humVEGF26-104/humVEGF1-165 in phosphate-buffer (0.1 M, pH=8) for three hours at 37° C., followed by overnight standing at room temperature. After washing with 1% TWEEN®-80 (3×), the plates were incubated with the antibody at various different dilutions in horse serum (4% in PBS/1% TWEEN®-80/3% NaCl), starting with 1/10 dilution in the first well and three-fold dilution steps in subsequent wells. […] OD405 nm-values were measured after 45 minutes standing at room temperature in the dark. […]
Wistar rats: Female Wistar rats were immunized with anti-humVEGF26-104 at day 0 with 400 μL (intramuscular+subcutaneous, 200 μL each) of a 375 μg/mL solution of humVEGF26-104 in PBS/CoVaccine 1:1 (v/v) (PBS=Phosphate-Buffered Saline), followed by a booster (same quantity and concentration) at two and four weeks. […]
as §3

[5] = Immunization study in Wistar rats with oxid-ratVEGF26-104 and oxid-humVEGF26-104; assay type: in vivo; settings: 250 micrograms, CoVaccine, days 0, 14, 28, 42; bled day 56
Description: This example describes the results of an immunization study in male Whistar rats with both oxid-hum-VEGF26-104 and oxid-ratVEGF26-104 with an intact cystine-knot fold (oxid-form). […] The use of truncated VEGF as described in this patent can thus be used to bypass immune tolerance to “self proteins,” like, for example, the full-length homodimeric VEGF protein in this particular case.
A total of four Wistar rats (2×2) were immunized on day 0 with 250 micrograms each of either oxid-ratVEGF26-104 (two rats) or oxid-humVEGF26-104 (two rats) using CoVaccine as adjuvant, followed by booster inoculations at day 14, 28, and 42. The rats were finally bled at day 56, and the sera were analyzed for antibody titers against ratVEGF1-165, humVEGF1-165, oxid-ratVEGF26-104, and oxid-humVEGF26-104.

[6] = biological target: T3, full-length TGF-B2 (Homo sapiens, UniProt P61812); assay: ELISA titers of rat antisera to full-length TGF-B2 after immunization with the chimeric peptide; assay type: binding
T3 sequence (P61812 303-414 limits assumed): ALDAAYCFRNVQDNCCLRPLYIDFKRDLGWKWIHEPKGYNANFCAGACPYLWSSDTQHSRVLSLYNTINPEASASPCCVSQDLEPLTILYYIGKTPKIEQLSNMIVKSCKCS
Description: (§1) FIG. 21. (Panel A) Antibody titers in ELISA for 9wpv-rat sera (1 and 2+pre-immune sera) that were elicited via immunization with oxid-humTGFB215-111/Δ49-77-humVEGF62-67. Titers were defined as the −10 log [conc] at which the OD in ELISA is equal to 4× the background signal. (Panel B) Antibody binding in ELISA of 9wpv-rat sera to surface-immobilized 1) humTGFB2trunc-1 (with VEGF b2-loop), 2) humTGFB2trunc-2 (with sequence PGGSPA replacing native humTGF-B2 b2-loop), and 3) humVEGFtrunc.
(§2) Each animal received four inoculations (0, 2, 4, and 7.5 wks) with 2×450+2×130 microgram of oxid-humTGFB215-111/Δ49-77-humVEGF62-67.

[7] = system: humTGFB2trunc-1, humTGFB2trunc-2, humVEGFtrunc; assay: ELISA binding of 9wpv-rat sera to humTGFB2trunc-1, humTGFB2trunc-2 and humVEGFtrunc; parameters: species or system human
Description: as §1, §2

Molecule: (cyclic) peptide-mimic derived from the beta3-loop of humVEGF: backbone-cyclized peptide covering only the β5-turn-β6 loop of humVEGF (humVEGF74-98) (SNITMQIMRIKPHQGQHIGEMSFLQ; cyclised or stapled) [reference compound]
fold less active in binding to Avastin™ [1]: > 10,000 fold

Molecule: Avastin: humanized anti-humVEGF monoclonal antibody (Genentech)
titer endblood (mAb, as concentration) [2]: <1000 ng/mL

B2: oxid-ratVEGF26-104: truncated rat VEGF residues 26-104, acetylated and amidated, cystine-knot folded (SEQ ID NO:30) (peptide)
chain: CRPIETLVDIFQEYPDEIEYIFKPSAVPLMRCAGACNDEALECVPTSESNVTMQIMRIKPHQSQHIGEMSFLQHSRCEC
modifications: N-acetyl, C-amide, cystine-knot folded; ratVEGF26-104
immunogenicity in rats compared to oxid-humVEGF26-104 [5]: equally immunogenic and potent as compared to oxid-humVEGF26-104

Second part, led by results:

difference in affinity (as compared to humVEGF1-165) to Avastin™ ([1]; 10 ng/mL Avastin): less than five
B1: oxid-humVEGF26-104: truncated human VEGF residues 26-104, N-acetylated, C-amidated, cystine-knot folded (SEQ ID NO:27) (peptide)
chain: B2 chain with R2H, A33G, A40G, S47E, V51I, S63G, S75N, R76K
modifications: N-acetyl, C-amide, cystine-knot folded; VEGF26-104
effect on the proliferating ability of humVEGF1-165 ([3]; 0.01-20 ng/mL in the presence of humVEGF1-165=1.2 ng/mL): nor any affect on the proliferating ability of humVEGF1-165
activity in BaF3-cell proliferation ([3]; 0.01-20 ng/mL, absence of humVEGF1-165): no activity
antibody generation via immunization (not conjugated to a carrier protein) [4]: high levels of antibodies were successfully generated

titer in ELISA to full-length TGF-B2, pre-immune sera ([6]; pre-immune sera of the two rats): ≤ 2.1
titer in ELISA to full-length TGF-B2, nine weeks post vaccination antisera ([6]; two rats, inoculations at 0, 2, 4, 7.5 wks, titer = -10log[conc] at which OD = 4x background): 3.8 and 4.1
B3: oxid-humTGFB215-111/Δ49-77-humVEGF62-67: chimeric truncated human TGFB2 residues 15-111 with beta2-loop replaced by humVEGF 62-67 (SEQ ID NO:35) (peptide)
chain: CALRPLYIDFKRDLGWKWIHEPKGYNANFCAGACNDEGLECVSQDLEPLTILYYIGKTPKIEQLSNMIVKSCKC
modifications: oxidized; humTGFB2-humVEGF
cross-reactivity of elicited antibodies with native humTGF-B2 ([6]; rat antisera): fully cross-reactive with the native protein humTGF-B2
specificity of antibodies in the sera (TGFB2-part versus VEGF-part) [7]: majority of antibodies in the sera were directed towards the TGFB2-part of the peptide
